# Values of other authors, collected in article PMC4518304.
# Molecular target: Asp26 (UniProt position 27, GAILVDFWAEW)
# Assay: NMR
# Details: reduced thioredoxin (per title of ref. 51)
substance,measurement,value
Thioredoxin (thioredoxin 1) (Escherichia coli),pKa,7.3–7.5
